Measured values reported in patent US20240327502A1.

B1: M4B04 (antibody, V domains shown)
VH: QVQLVESGGGVVQPGKSLRLSCAASGFTFRSYTMFWVRQAPGKGLEWVAIILHDGTNRYYTDSVKGRFTISRDNTKNTVYLQMNSLRPEDTAMYYCARESLEWMLDWGQGTLVTVSS
VL: EIVMTQSPATLSVSPGERATLSCRASQSLSGNLAWFQQKPGQAPRLLIYGTSTRATGIPARFSGSGSGTEFTLTISSLQSEDFAVYYCQQYNNWPPVFTFGPGTKVDIK
B2: M3D09 (antibody, V domains shown)
VH: QVQLVESGGGVVQSGKSLGLSCIASGFIFSNYALHWVRQAPGKGLEWLSVISYDGTNKYYANSVRGRFTVSRDNSKNTLFLHMNSLGVDDTAMYYCARDPERLADLGRMDFWGRGTLVAVLS
VL: DIVMTQSPDSLAVSLGERATINCKSSQSVLFSPNNKNYLAWYQQKPGQPPKLLIYWASTREYGVPERFSGSGSGTDFTLTISSLQAEDVAVYYCQQYNSNPYTFGQGTKLEIR
B3: M2D07 (antibody, V domains shown)
VH: QVQLVESGGAVVQPGRSLRLSCAASGFTFTSFSMHWVRQAPGRGLEWVAVISHDGIIKYYADSVKGRFTISRDNSKNTVFLQMNSLRPEDTAVFYCARDFPGSRGFFRYYFDHWGQGTLVTVSS
VL: DIQMTQSPSSLSASVGGSVTITCRVDQSISNDLHWYQQKPGKAPKLLISSASSLQSGVPSRFSGSGSGTDFTLTITSLQPEDFATYYCQQSYTTPPLFGQGTTLEIK
B4: M6E10 (antibody, V domains shown)
VH: QVQLVQSGAEVKKPGSSVKVSCNASGGIFDTNVINWVRQAPGQGLEWMGGIIPPFGTALYAHQFQGRLTLTVDESTNTAYMDLSSLRSDDTAVYFCARDRTVIKYADGMDVWGQGTTVTVSS
VL: DIQMTQSPSSLSASVGDKVAITCRASQTISPYLNWYQQKPGKAPNLLIYGTNKLQSGVPLRFSGSGSGTDFTLTINGLQPEDFATYFCQQSHTTPLTFGGGTKVEIKR
B5: M4A12 (antibody, V domains shown)
VH: QLQESGSGPGLVKPSETLSLICNASGDSVTRNAYYWGWLRQPPGKGLEWIGIMYYSGSTFYNPSLKSRLTISVDTSKNQFSLKLRSVTAADTATYYCGEATLTTYDAFDVWGHGTMVTVSS
VL: QSVLTQPPSVSAAPGQRVTISCSGGNSNIGKNYVSWYQQVPGTAPKLLIYENNKRPSGIPDRFSGSKSGTSATLGITGLQTGDEADYYCGAWDSSLNGVLFGGGTRLTVL
B6: M2D10 (antibody, V domains shown)
VH: QVQLVQSGAEVKKPGASVRISCKPSGRAFLTYDINWVRQAPGQGLEWMAGMNPGSGNAAYAPKFQGRLTMIRNTSISTDYLELSSLTSEDTAVYYCARGEVSMRWRWLDPWGQGSLVTVTS
VL: DIQMTQSPSSLSASVGDRVTITCRASQTISNFLNWYQQKPGRAPKVLIYAALNLQSGVPSRFRGSGSGTDFTLTINNLQPEDFAIYYCQQSYITPWTFGQGTKVEIK
B7: M4B01 (antibody, V domains shown)
VH: EVQLLESGGGLVQPGGSLRLSCAASGFNFNTYAMSWVRQAPGKGLKWISTISGSGGVKYYADSVKGRFTISRDNSGSILYLQMNRLRADDTAVYYCAKSQNPQLVFFDSFDMWGQGSMVTVSS
VL: QSVLTQAPSASAAPGQKVTISCSGSTSNIGNSYVSWYQQVPGTAPKLLIYEDNQRPSGIPDRFSGSKSGTSATLGITGLQTGDEADYYCGTWDNSLTEVVFGGGTKLTVL
B8: M3E01 (antibody, V domains shown)
VH: EVQLVESGGGLIQPGGSLRLSCTASGFTVSSKYMSWVRQAPGKGLEWVSLIYDGGSTYYADSVKGRFLISRDNAKNTLYLQMHSLRAEDTAVYYCARDRGTYSGYDWYSGMDVWGQGTTVTVSS
VL: DIQLTQSPSFLSASVGDRITITCRASQGISSYLAWYQQKPGKAPKLLIYAASTLQSGVPSRFSGSGSGTEFNVTISSLQPEDFATYYCQQLKSYPGTFGQGTKVEIE
B9: M2B07 (antibody, V domains shown)
VH: EVQLVESGGGLVRPGGSLRLSCAASGFTFNNYWMHWVRQAPGKGLVWVSHVKSDGSITNYADSVKGRFTISRDNAKNTLYLEMSSLRVEDTAVYYCARESRPYDPLTGSHPDAFDIWGQGTMVTVSS
VL: DIVMTQSPDSLAVSLGERATINCKSSESIFYYSNSKSYLAWYRQKPGQPPKLLIYWASTRESGVPDRFSGSGSGTDFTLTISSLQPEDVAVYYCQQYYTNPRTFGQGTRLEIK
B10: M3D06 (antibody, V domains shown)
VH: EVQLVESGGGLVQPGGSLRLSCAASGFPFNFYWMHWVRQAPREGLVWVSRINNDGSSPNYADSVWGRFTISRDNAKNTLYLQMHSLRAEDTAVYYCARAARFGDYVDQWGQGTLVTVSS
VL: AIQLTQSPSSLSASMGDRVTITCRASQGISSAFAWYQQKPGKAPKLLIYDASTLESGVPSRFSGSGSGTDFTLTISSLQPEDFATYYCQQFNSYPLTFGGGTKVEIK
B11: M4A08 (antibody, V domains shown)
VH: EVQLVESGGALVRPGGSLRVSCEASGFNFRTHWMHWVRQAPGKGLVWVARTNGDGSVTNYADSVKGRFTFFRDNAKNTLFLQMTSLRVDDTAVYYCARERLDYSSTRGHFPGDFDSWGQGTLVTVSS
VL: DIVMTQSPDSLAVSLGERATINCKSSESVLYTSNSKNYLAWYQQKPGHPPKVLIYWASTRESGVPDRFSGSGSGTDFSLSISSLQAEDVAVYYCQQYFTIPRTFGQGTKVEIK
B12: M1C11 (antibody, V domains shown)
VH: QVQLVQSGAEMKKPGSSVKVSCKTSGGSFSSYPVSWVRQAPGQGPEWMGGIIPLSGTTHYAQMFQGRVSITADDSTRTVFMELTSLRSGDTAVYYCARSGAPTYYYDSSGFHGGAFHFWGQGTVVTVSS
VL: DIVMTQSPDSLAVSLGERATINCKSSQSVLYSSNSKSYLAWYQQKPGQPPKLLIYWASSRESGVPDRFSGSGSGTDFTLTISSLQAEDVAVYYCQQFYTSPHTFGQGTKLEIKR
B13: M1A01 (antibody, V domains shown)
VH: QVQLVQSGAEVKKPGSSVKVSCWASGGTFDNAINWLRQAPGQGPEWMGRIIPLVDIVNRAPKFQDRVSFTADKSTNTVYMVLNSLTSDDTAVYYCASAFQDGWFDPWGQGTLVTVSS
VL: EIVLTQSPATLSLSPGERATLSCRASQSLSRYLAWYQQKPGQAPRLLIYDASNRATGVPARFSGSGSGTDFTLTISSLEPEDFAVYYCHQRHNWITFGQGTRLEIK
B14: M2A09 (antibody, V domains shown)
VH: QVQLVQSGAGVRKPGSSVKVSCKASGGTFSNYIISWVRQAPGQGLEYIGRIIPIVGMEKYEEKFQGRVKITADESTSTVSMELTSLKSEDTATYYCATEGLESGYPPYLEHWGRGTLVIVSS
VL: EIVLTQSPGTLSLSPGERATLSCRTSQTVGAHLAWYQQKPGQSPRLLIYGASSRATGIPDRFSGSGSGTVFTLTINRLEPEDLAVYYCQQYGASPPTFGQGTKVEIK
B15: M2E06 (antibody, V domains shown)
VH: EVQLVESGGDLVQPGGSLRLSCEASAFTFSDYAMTWVRQAPGKGLEWVSSINTSGGRTYYADSVKGRFTISRDNSKNTLYLQMKSLRAEDTAVYFCARFFYVMDVWGQGTTVTVSS
VL: AIQMTQSPSSLSASVGDRVTITCRASQGVRNDLGWYQQKPGKAPKLLINAASGLQSGVPSRFSGSGSDTDFTLTISSLQPEDFATYYCLQVYSYPFTFGPGTKVDIK
B16: M4C02 (antibody, V domains shown)
VH: QLQLQESGPRLVKPSETLSLTCSVSGGSISSSSLYWGWIRQSPGKGLEWIGTIYYGGSSDYNPSLKSRLTMSVDTSKNHFSLRLSSVTAADTAVYYCARVGSPVTTTVWFDPWGQGTLVTVSS
VL: DIQMTQSPSSLAASIGDRVTITCRASQTISTYLNWYQQKPGKAPKLLIYAASTLQSGVPSRFSGSGSGTDFTLTISSLQPEDFATYYCQQTYSSLALTFGGGTKVEIR
B17: M1A12 (antibody, V domains shown)
VH: QVQLVQSGTEVKKPGSSVKVSCKDPGDIMSSHSIHWVRQAPGQGPEWMGRIIPLFGMKSYAPNFQGRVSISVDTSTNTAYLELSGLKSDDTAVYFCAREENLSWLDYWGQGTQVIVSS
VL: EIVLTQSPATLSLSPGDRATLSCRASLRLSTNIAWYQQKPGQAPRLVIYDASKRATGIPARFSGSGSGTDFTLTISSLEPEDFAVYYCHQHSNWYTFGQGTKLEIK
B18: M3C07 (antibody, V domains shown)
VH: QLQLQESGPGLVKPWETLSLTCIVSGGSISRSTHYWGWIRQSPEMGLEWIGSIYYTGNTYYNPSFKSRVTISVDTSRNQLSLRVNSVSAADTARYYCARHETYDYGVFNIWGQGAMVTVSA
VL: EIVLTQSPGTLSLSPGERAILSCRASQTVSSDYLAWYQQRPGQAPRLLIYDASSRATGVPDRFRGSGSGTDFTLTISRLEPEDFGVYYCQQYGSPYTFGQGTKLEIK
B19: M3D12 (antibody, V domains shown)
VH: QVQLQESGPGLVKPSQTLSLTCTVSGASVSSEYYYWSWIRQPPGKGLEWIGYIYHNGDTYYNPSLKGRGIISMDTSKNQFSLKLISVTAADTAVYYCARLAVAGVTGFHYWGLGTLVTVSS
VL: EIVLTQSPDTLSLSPGERATLSCRASRSVRNYLAWYQQKPGQAPRLLIYDASNRAPGIPARFSGSGSETDFTLTISSLEPEDFAVYYCQQRSNWGLTFGGGTKVEIK
B20: M3E03 (antibody, V domains shown)
VH: QVQLVESGGGVVQPGRSLRLSCVASGFPFDSFAMHWVRQAPGKGLEWVAIVWYDGGDKFYSESVKGRFSISRDNSRNTVFLQMNSLRAEDTAVYYCARGMITFDYWGPGTLVTVSS
VL: EIVLTQSPGTLSLSPGERATLSCRASQNVDSSYLAWYQQKPGQAPRLLMYGASTRVAGIPDRFSGSGSGTDFTLTISRLEPEDFVVYYCQQYGTSPTWTFGQGTKVEIK

What follows are binders tested on F protein of hMPV B virus (human metapneumovirus subtype B) (assay: cell-based or functional assay).

Row | Binder | PRNT IC50 [µg/mL]
1 | B1 | 1.97
2 | B2 | 0.28
3 | B3 | 2.5
4 | B4 | 0.0104
5 | B5 | 0.0744
6 | B6 | 1.34
7 | B7 | 0.0628
8 | B8 | > 10
9 | B9 | 0.426
10 | B10 | > 10
11 | B11 | 0.344
12 | B12 | 0.444
13 | B13 | 4
14 | B14 | 0.0456
15 | B15 | 0.139
16 | B16 | 0.173
17 | B17 | 5
18 | B18 | > 10
19 | B19 | 0.0145
20 | B20 | 0.0762

What follows are binders tested on F protein of hMPV A virus (human metapneumovirus subtype A) (assay: cell-based or functional assay).

Row | Binder | PRNT IC50 [µg/mL]
21 | B1 | 4.59
22 | B2 | 2
23 | B3 | 1.07
24 | B4 | 0.0237
25 | B5 | > 10
26 | B6 | 0.759
27 | B7 | 0.0371
28 | B8 | > 10
29 | B9 | 0.625
30 | B10 | > 10
31 | B11 | 0.136
32 | B12 | 5.92
33 | B13 | 3.41
34 | B14 | 0.0133
35 | B15 | 0.105
36 | B16 | 0.577
37 | B17 | 1.51
38 | B18 | > 10
39 | B19 | 0.0231
40 | B20 | 0.0199
